Reference: paper PMC8141872

Target: GST-fused PINCH-1 LIM5 domain (residues 249-325) (human), P48059
Test: BLI; BLItz; GST-fused PINCH protein or GST (0.05 mg/ml) loaded on anti-GST biosensor, Rsu-1 WT or mutant in the mobile phase; 20 mM Tris pH 7.5, 150 mM NaCl, 1 mg/ml BSA, 0.05% Tween-20; 1:1 global fit; at least three measurements
Details: remark: other sources report otherwise

Chain of GST-fused PINCH-1 LIM5 domain (residues 249-325) (human), P48059 (P48059 249-325): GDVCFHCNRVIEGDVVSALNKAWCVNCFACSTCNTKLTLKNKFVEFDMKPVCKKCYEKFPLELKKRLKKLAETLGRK

Kd: 33.3 µM
B1: Rsu-1 triple mutant R2W (Phe71Arg, Arg165Trp, Asp166Arg), Q15404 1-277 (natural protein)
chain: MSKSLKKLVEESREKNQPEVDMSDRGISNMLDVNGLFTLSHITQLVLSHNKLTMVPPNIAELKNLEVLNFRNNQIEELPTQISSLQKLKHLNLGMNRLNTLPRGFGSLPALEVLDLTYNNLSENSLPGNFFYLTTLRALYLSDNDFEILPPDIGKLTKLQILSLWRNDLISLPKEIGELTQLKELHIQGNRLTVLPPELGNLDLTGQKQVFKAENNPWVTPIADQFQLGVSHVFEYIRSETYKYLYGRHMQANPEPPKKNNDKSKKISRKPLAAKNR
